Test results reported in US20220135655A1.

Molecular target: H5VN04 recombinant trimeric hemagglutinin (HA) (influenza A virus H5VN04 (H5N1))

Substance	fold reduction of binding against CR6261 [fold]	fold reduction of binding against F10 [fold]
CR6261 F54A scFv	800	
CR6261 Y98A scFv	> 4000	
F10 Y98A scFv		> 3000
